{"source": "the Human Domainome abundance scans (Beltran et al. 2025)", "parents": {"B1": {"name": "Bromodomain adjacent to zinc finger domain protein 2B, residues 1927 to 1982; numbered along this chain, Q9UIF8 (parent)", "chain": "KSIMKVYCQICRKGDNEELLLLCDGCDKGCHTYCHRPKITTIPDGDWFCPACIAKA"}}, "note": "± gives the uncertainty stated by the source."}
{"variants_of": "B1", "assay": "abundance fitness (aPCA) (normalised: wild type 0, dead -1); higher = more abundant; growth selection in yeast, the domain comes from the species named", "settings": "Homo sapiens"}
{"variant": "KSIMKVYCQICRKGDNEELLLLCDGCDKGCHFYCHRPKITTIPDGDWFCPACIAKA", "abundance fitness": "-0.235 ± 0.14"}
{"variant": "KSIMKVYCQICRKGDNEELLLLCDGCDKGCHPYCHRPKITTIPDGDWFCPACIAKA", "abundance fitness": "-0.271 ± 0.11"}
{"variant": "KSIMKVYCQICRKGDNESLLLLCDGCDKGCHTYCHRPKITTIPDGDWFCPACIAKA", "abundance fitness": "0.01 ± 0.1"}
{"variant": "KSIMKVYCQICRKGDNEELLLLCDGCDKGCHTYCHRPMITTIPDGDWFCPACIAKA", "abundance fitness": "-0.09 ± 0.11"}
{"variant": "KSIMKVYCQICRKGDNEELLLLCDGCDKGCHTYCHRPQITTIPDGDWFCPACIAKA", "abundance fitness": "-0.219 ± 0.13"}
{"variant": "KSIMKVYCQICRKGDNEELLLLCDGCPKGCHTYCHRPKITTIPDGDWFCPACIAKA", "abundance fitness": "-0.173 ± 0.12"}
{"variant": "KSIMKVYCQICRKGDNEELLLLCDGCYKGCHTYCHRPKITTIPDGDWFCPACIAKA", "abundance fitness": "-0.085 ± 0.13"}
{"variant": "KSIMKVYCQICRKGDNEELLLLCDGCDKCCHTYCHRPKITTIPDGDWFCPACIAKA", "abundance fitness": "0.004 ± 0.11"}
{"variant": "KSIMKVYCQICRKGDNEELLLLCDGCDKLCHTYCHRPKITTIPDGDWFCPACIAKA", "abundance fitness": "-0.149 ± 0.074"}
{"variant": "KSIMKVYCQICRKGDNEELLLLCDGCDKECHTYCHRPKITTIPDGDWFCPACIAKA", "abundance fitness": "-0.078 ± 0.1"}
{"variant": "KSIMKVYCQICRKGDNEELLLLCDGCDKTCHTYCHRPKITTIPDGDWFCPACIAKA", "abundance fitness": "-0.088 ± 0.11"}
{"variant": "KSIMKVYCQICRKGDNEELLLLCDGCDKGCHTYCHRPKITTIPDGDWFCPAKIAKA", "abundance fitness": "-0.486 ± 0.15"}
{"variant": "KSIMKVYCQICRKGDNEELLLLCDGCDKGCHTYCHRPKITTIPDGDWFCPARIAKA", "abundance fitness": "-0.581 ± 0.069"}
{"variant": "KSIMKVYCQICPKGDNEELLLLCDGCDKGCHTYCHRPKITTIPDGDWFCPACIAKA", "abundance fitness": "-0.89 ± 0.17"}
{"variant": "KSIMKVYCQICVKGDNEELLLLCDGCDKGCHTYCHRPKITTIPDGDWFCPACIAKA", "abundance fitness": "-0.079 ± 0.065"}
{"variant": "KSIMKVYCQICRKGDNEELLLLCDGCDKGCHTYCHRPKITTIPDGDWFCPACFAKA", "abundance fitness": "-0.072 ± 0.24"}
{"variant": "KSIMKVYCQICRKGDNEELLLLCDGCDKGCHTYCHRPKITTIPDGDWFCPACRAKA", "abundance fitness": "-0.087 ± 0.078"}
{"variant": "KSIMKVYCQICRKGDNEELLLLCDGCDKGCHTYCHRPKITTIPDGDWFCPACAAKA", "abundance fitness": "-0.037 ± 0.074"}
{"variant": "KSIMKSYCQICRKGDNEELLLLCDGCDKGCHTYCHRPKITTIPDGDWFCPACIAKA", "abundance fitness": "0.014 ± 0.092"}
{"variant": "KSIMKFYCQICRKGDNEELLLLCDGCDKGCHTYCHRPKITTIPDGDWFCPACIAKA", "abundance fitness": "0.064 ± 0.2"}
{"variant": "KSIMKYYCQICRKGDNEELLLLCDGCDKGCHTYCHRPKITTIPDGDWFCPACIAKA", "abundance fitness": "0.171 ± 0.2"}
{"variant": "KYIMKVYCQICRKGDNEELLLLCDGCDKGCHTYCHRPKITTIPDGDWFCPACIAKA", "abundance fitness": "-0.558 ± 0.4"}
{"variant": "KRIMKVYCQICRKGDNEELLLLCDGCDKGCHTYCHRPKITTIPDGDWFCPACIAKA", "abundance fitness": "-0.077 ± 0.091"}
{"variant": "KEIMKVYCQICRKGDNEELLLLCDGCDKGCHTYCHRPKITTIPDGDWFCPACIAKA", "abundance fitness": "0.034 ± 0.24"}
{"variant": "KSIMKVYCQICRKGDNEELLLLCDGCDKGLHTYCHRPKITTIPDGDWFCPACIAKA", "abundance fitness": "-0.064 ± 0.068"}
{"variant": "KSIMKVYCQICRKGDNEELLLLCDGCDKGVHTYCHRPKITTIPDGDWFCPACIAKA", "abundance fitness": "-0.071 ± 0.074"}
{"variant": "KSIMKVYCQICRKGDNEELLLLCDGQDKGCHTYCHRPKITTIPDGDWFCPACIAKA", "abundance fitness": "-0.711 ± 0.15"}
{"variant": "KSIMKVYCQICRKGDNEELLLLCYGCDKGCHTYCHRPKITTIPDGDWFCPACIAKA", "abundance fitness": "-0.669 ± 0.14"}
{"variant": "KSIMKVYCQICRKGDNEELLLLCDGCDKGCHTYCHRPKITTIPDDDWFCPACIAKA", "abundance fitness": "-0.068 ± 0.13"}
{"variant": "KSIMKVYCQICRKGDNEELLLLCDGCDKGCHTYCHRPKITTIPDRDWFCPACIAKA", "abundance fitness": "0.023 ± 0.17"}
{"variant": "KSIMKVYCQICRKGDNEELLLLCDGCDKGCHTYCHRPKITTIPDMDWFCPACIAKA", "abundance fitness": "-0.371 ± 0.47"}
{"variant": "KSIMKVYNQICRKGDNEELLLLCDGCDKGCHTYCHRPKITTIPDGDWFCPACIAKA", "abundance fitness": "-1.11 ± 0.33"}
{"variant": "KSIMKVYRQICRKGDNEELLLLCDGCDKGCHTYCHRPKITTIPDGDWFCPACIAKA", "abundance fitness": "-1.08 ± 0.088"}
{"variant": "KSIMKVYSQICRKGDNEELLLLCDGCDKGCHTYCHRPKITTIPDGDWFCPACIAKA", "abundance fitness": "-0.944 ± 0.11"}
{"variant": "KSIMKVYIQICRKGDNEELLLLCDGCDKGCHTYCHRPKITTIPDGDWFCPACIAKA", "abundance fitness": "-1.34 ± 0.43"}
{"variant": "KSIMKVYCQICRKGDNEELLLLCDGCDKGCHTYCHRVKITTIPDGDWFCPACIAKA", "abundance fitness": "-0.228 ± 0.1"}
{"variant": "KSIMKVYCQICRKGDNEELLLLCDGCDKGCHTYCHRGKITTIPDGDWFCPACIAKA", "abundance fitness": "-0.161 ± 0.098"}
{"variant": "KSIMKVYCQICRKGDNEELLLLCDGCDKGCHTYCHRNKITTIPDGDWFCPACIAKA", "abundance fitness": "-0.166 ± 0.13"}
{"variant": "KSIMKVYCQICRKGDNEELLLLCDGCDKGCHTYCHRAKITTIPDGDWFCPACIAKA", "abundance fitness": "-0.056 ± 0.1"}
{"variant": "KSIMKVYCQICRKGDNEELLLLCDGCDKGCHTYCHRPKITTIPDGDWVCPACIAKA", "abundance fitness": "0.044 ± 0.089"}
{"variant": "KSIMKVYCQICRKGDNEELLLLCDGCDKGCHTYCHRPKITTIPDGDWRCPACIAKA", "abundance fitness": "0 ± 0.069"}
{"variant": "KSIMKVYCQICRKGDNEEGLLLCDGCDKGCHTYCHRPKITTIPDGDWFCPACIAKA", "abundance fitness": "-0.064 ± 0.08"}
{"variant": "LSIMKVYCQICRKGDNEELLLLCDGCDKGCHTYCHRPKITTIPDGDWFCPACIAKA", "abundance fitness": "-0.693 ± 0.38"}
{"variant": "ISIMKVYCQICRKGDNEELLLLCDGCDKGCHTYCHRPKITTIPDGDWFCPACIAKA", "abundance fitness": "-0.262 ± 0.2"}
{"variant": "FSIMKVYCQICRKGDNEELLLLCDGCDKGCHTYCHRPKITTIPDGDWFCPACIAKA", "abundance fitness": "-0.783 ± 0.4"}
{"variant": "MSIMKVYCQICRKGDNEELLLLCDGCDKGCHTYCHRPKITTIPDGDWFCPACIAKA", "abundance fitness": "-0.157 ± 0.14"}
{"variant": "KSIMKVYCQICRKGDNEELLLLCDGCDKGCHTYCHRPKITTIPDGDWFPPACIAKA", "abundance fitness": "-0.993 ± 0.16"}
